Results on 4 variants are retold here after IntAct's records for PubMed 23064147.

B1: Spindle assembly abnormal protein 6 (Caenorhabditis elegans), O62479 (parent)
chain: MTSKIALFDQTLIASLLQPLSLNQPDFKAYKTKVKLKISEQRNETSGEKELKFEISRSDDFEFLFSETLNNEKYQILARDHDLTVDFDAFPKVIIQHLLCKNIVKNLEEDGEVDARKKAGYHSIADPGKPTEINIILDAEKNFCSFELFSKTPISKGKIFSIKLHAVRGDHLISHLLKICSSQAVKLSTFYKSADELASLRQKCGDLEKQVEKLSGVKEEFEEMSEKFKELEDEVELVKEERENIRLLVEDKEDEVADLKQDTESLQKQLEENQEELEIVGNMLREEQGKVDQLQKRNVAHQKEIGKLRAELGTAQRNLEKADQLLKRNSQQQNQQSLDMRKLGELEADLKEKDSMVESLTETIGILRKELENEKLKAAENMDSFEKLSMENENLKEKIAHYRAQRFSPAPSGLPGLQTGLTNRLTPSFKPVLGPHTPYGANLNSRTPFRDNTTLNFQNSTIATPHAFRFNSQLIADETTGSSVTNTPPAQR
partner: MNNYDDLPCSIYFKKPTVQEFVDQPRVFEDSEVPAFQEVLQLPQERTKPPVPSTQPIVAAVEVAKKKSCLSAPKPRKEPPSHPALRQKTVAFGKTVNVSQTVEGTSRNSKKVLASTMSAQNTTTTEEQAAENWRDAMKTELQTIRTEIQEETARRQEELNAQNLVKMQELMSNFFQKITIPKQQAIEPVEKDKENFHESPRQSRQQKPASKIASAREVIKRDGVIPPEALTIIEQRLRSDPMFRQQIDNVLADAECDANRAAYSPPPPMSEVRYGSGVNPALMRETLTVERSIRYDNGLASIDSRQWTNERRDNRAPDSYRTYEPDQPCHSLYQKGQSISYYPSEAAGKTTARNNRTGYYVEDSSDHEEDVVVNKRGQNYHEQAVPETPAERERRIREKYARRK

The first experiment covers variants of B1. The following applies: with sas5_caeel sas-5, Q20010.
Regarding MTSKIALFDQTLIASLLQPLSLNQPDFKAYKTKVKLKISEQRNETSGEKELKFEISRSDDFEFLFSETLNNEKYQILARDHDLTVDFDAFPKVIIQHLLCKNIVKNLEEDGEVDARKKAGYHSIADPGKPTEINIILDAEKNFCSFELFSKTPISKGKIFSIKLHAVRGDHLISHLLKICSSQAVKLSTFYKSADELASLRQKCGDLEKQVEKLSGVKEEFEEMSEKFKELEDEVELVKEERENIRLLVEDKEDEVADLKQDTESLQKQLEENQEELEIVGNALREEQGKVDQLQKRNVAHQKEIGKLRAELGTAQRNLEKADQLLKRNSQQQNQQSLDMRKLGELEADLKEKDSMVESLTETIGILRKELENEKLKAAENMDSFEKLSMENENLKEKIAHYRAQRFSPAPSGLPGLQTGLTNRLTPSFKPVLGPHTPYGANLNSRTPFRDNTTLNFQNSTIATPHAFRFNSQLIADETTGSSVTNTPPAQR [M283A], the “effect of a mutation on the interaction” value is “decreasing interaction”.

The variants in the next experiment derive from B1. The note with it: with sas5_caeel sas-5, Q20010. This is another data set of the same source.
Consider MTSKIALFDQTLIASLLQPLSLNQPDFKAYKTKVKLKISEQRNETSGEKELKFEISRSDDFEFLFSETLNNEKYQILARDHDLTVDFDAFPKVIIQHLLCKNIVKNLEEDGEVDARKKAGYHSIADPGKPTEINIILDAEKNFCSFELFSKTPISKGKIFSIKLHAVRGDHLISHLLKICSSQAVKLSTFYKSADELASLRQKCGDLEKQVEKLSGVKEEFEEMSEKFKELEDEVELVKEERENIRLLVEDKEDEVADLKQDTESLQKQLEENQEELEIVGNALREEQGKVDQLQKRNVAHQKEIGKLRAELGTAQRNLEKADQLLKRNSQQQNQQSLDMRKLGELEADLKEKDSMVESLTETIGILRKELENEKLKAAENMDSFEKLSMENENLKEKIAHYRAQRFSPAPSGLPGLQTGLTNRLTPSFKPVLGPHTPYGANLNSRTPFRDNTTLNFQNSTIATPHAFRFNSQLIADETTGSSVTNTPPAQR [M283A], for which the “effect of a mutation on the interaction” value is listed as “disrupting interaction”.

The variants in the next experiment derive from B1. The following applies: with sas5_caeel sas-5, Q20010. This is another data set of the same source.
As for MTSKIALFDQTLIASLLQPLSLNQPDFKAYKTKVKLKISEQRNETSGEKELKFEISRSDDFEFLFSETLNNEKYQILARDHDLTVDFDAFPKVIIQHLLCKNIVKNLEEDGEVDARKKAGYHSIADPGKPTEINIILDAEKNFCSFELFSKTPISKGKIFSIKLHAVRGDHLISHLLKICSSQAVKLSTFYKSADELASLRQKCGDLEKQVEKLSGVKEEFEEMSEKFKELEDEVELVKEERENIRLLVEDKEDEVADLKQDTESLQKQLEENQEELEIVGNMLRAEQGKVDQLQKRNVAHQKEIGKLRAELGTAQRNLEKADQLLKRNSQQQNQQSLDMRKLGELEADLKEKDSMVESLTETIGILRKELENEKLKAAENMDSFEKLSMENENLKEKIAHYRAQRFSPAPSGLPGLQTGLTNRLTPSFKPVLGPHTPYGANLNSRTPFRDNTTLNFQNSTIATPHAFRFNSQLIADETTGSSVTNTPPAQR [E286A], the “effect of a mutation on the interaction” value is “decreasing interaction”.

The next experiment covers variants of B1. The note with it: with sas5_caeel sas-5, Q20010. The source holds these as a separate data set.
Consider MTSKIALFDQTLIASLLQPLSLNQPDFKAYKTKVKLKISEQRNETSGEKELKFEISRSDDFEFLFSETLNNEKYQILARDHDLTVDFDAFPKVIIQHLLCKNIVKNLEEDGEVDARKKAGYHSIADPGKPTEINIILDAEKNFCSFELFSKTPISKGKIFSIKLHAVRGDHLISHLLKICSSQAVKLSTFYKSADELASLRQKCGDLEKQVEKLSGVKEEFEEMSEKFKELEDEVELVKEERENIRLLVEDKEDEVADLKQDTESLQKQLEENQEALEIVGNMLREEQGKVDQLQKRNVAHQKEIGKLRAELGTAQRNLEKADQLLKRNSQQQNQQSLDMRKLGELEADLKEKDSMVESLTETIGILRKELENEKLKAAENMDSFEKLSMENENLKEKIAHYRAQRFSPAPSGLPGLQTGLTNRLTPSFKPVLGPHTPYGANLNSRTPFRDNTTLNFQNSTIATPHAFRFNSQLIADETTGSSVTNTPPAQR [E276A], for which the “effect of a mutation on the interaction” value was “decreasing interaction”.

A further experiment covers variants of B1. The following applies: with sas5_caeel sas-5, Q20010. The source holds these as a separate data set.
For MTSKIALFDQTLIASLLQPLSLNQPDFKAYKTKVKLKISEQRNETSGEKELKFEISRSDDFEFLFSETLNNEKYQILARDHDLTVDFDAFPKVIIQHLLCKNIVKNLEEDGEVDARKKAGYHSIADPGKPTEINIILDAEKNFCSFELFSKTPISKGKIFSIKLHAVRGDHLISHLLKICSSQAVKLSTFYKSADELASLRQKCGDLEKQVEKLSGVKEEFEEMSEKFKELEDEVELVKEERENIRLLVEDKEDEVADLKQDTESLQKQLEENQEALEIVGNMLREEQGKVDQLQKRNVAHQKEIGKLRAELGTAQRNLEKADQLLKRNSQQQNQQSLDMRKLGELEADLKEKDSMVESLTETIGILRKELENEKLKAAENMDSFEKLSMENENLKEKIAHYRAQRFSPAPSGLPGLQTGLTNRLTPSFKPVLGPHTPYGANLNSRTPFRDNTTLNFQNSTIATPHAFRFNSQLIADETTGSSVTNTPPAQR [E276A], the “effect of a mutation on the interaction” value is listed as “disrupting interaction”.

Another experiment covers variants of B1. The note with it: with sas5_caeel sas-5, Q20010. This is another data set of the same source.
With MTSKIALFDQTLIASLLQPLSLNQPDFKAYKTKVKLKISEQRNETSGEKELKFEISRSDDFEFLFSETLNNEKYQILARDHDLTVDFDAFPKVIIQHLLCKNIVKNLEEDGEVDARKKAGYHSIADPGKPTEINIILDAEKNFCSFELFSKTPISKGKIFSIKLHAVRGDHLISHLLKICSSQAVKLSTFYKSADELASLRQKCGDLEKQVEKLSGVKEEFEEMSEKFKELEDEVELVKEERENIRLLVEDKEDEVADLKQDTESLQKQLEENQEELEIVGNMLREAQGKVDQLQKRNVAHQKEIGKLRAELGTAQRNLEKADQLLKRNSQQQNQQSLDMRKLGELEADLKEKDSMVESLTETIGILRKELENEKLKAAENMDSFEKLSMENENLKEKIAHYRAQRFSPAPSGLPGLQTGLTNRLTPSFKPVLGPHTPYGANLNSRTPFRDNTTLNFQNSTIATPHAFRFNSQLIADETTGSSVTNTPPAQR [E287A], the “effect of a mutation on the interaction” value is listed as “decreasing interaction”.
